Experimental data as given in patent US6825165B1, “Betacellulin modification” (Takeda Chemical Industries, Ltd., priority 1998, dated 2004).

Experiments:
[1] = test system: PLAP expression AR42J cells; assay: β cell differentiation promoting activity using human placenta alkaline phosphatase expression AR42J cells, Example 20; assay type: cell-based; conditions: 5 days incubation, read-out: BTC activity EC50
Protocol: 100 μL of these suspensions were inoculated to 96 well plates and incubated for 5 days at 37° C. in carbon dioxide gas incubators (5% carbon dioxide gas, 95% air). After 5 days, the culture supernatant were treated for 30 minutes at 65° C., and 50 μL was then added to 96-well microplates containing 50 μL of 2×SEAP (2M diethanolamine, 1 mM MgCl2, 20 mM homoarginine). 10 μL of 20 mg/mL p-nitrophenylphosphoric acid (Sigma) was added, and a reaction was brought about for 16 hours at 37° C. The ratio between EGF activity and the BTC activity of all the muteins decreased to about 5% of that of the Met-80 residue betacellulin, and was about the same as that of the Met-76 residue betacellulin, with no apparent influence by the N terminal deletion.

[2] = test system: PLAP expression AR42J cells; assay: Selection of PLAP expression AR42J clones: alkaline phosphatase activity with and without betacellulin; assay type: cell-based; conditions: 20 ng/mL Met-80 residue betacellulin, 4 days culture
Protocol: (§1) The differentiation promoting activity into β cells was also determined using AR42J cells transformed with the vector having alkaline phosphatase which had been ligated as a reporter downstream of the insulin promoter. Specifically, cells which have differentiated into β cells by addition of betacellulin produce alkaline phosphatase. As a result, by assaying the alkaline phosphatase activity, the differentiation promoting activity into β cells can be quantitatively assayed.
The pMCneopolyA plasmid (Stratagene) containing the neor gene of TnS and the PLAP expression plasmid pTB1898 were simultaneously introduced into AR42J cells using the transfection reagent TransIT™-LT1 (Mirus, PenVera Corporation). The plasmid introduced cells were then cultured for 2 days in DMEM supplemented with 10% fetal calf serum, and the culture was then continued in selection medium supplemented with 800 μg/mL G418 (geneticin, Gibco BRL). Clones were isolated by limiting dilution of cells growing with G418 resistance.
Cells of each clone were seeded to 24 well plates and cultured for 4 days with and without the addition of 20 ng/mL Met-80 residue betacellulin. The supernatant was collected and heat treated for 30 minutes at 65° C., and the alkaline phosphatase activity in the media was then assayed. Clones showing increased alkaline phosphatase activity with the addition of 80-residue betacellulin were selected.

AR42J cells [3] = assay: β cell differentiation promoting activity using AR42J cells (anti-insulin immunofluorescence), Example 9; assay type: cell-based; conditions: 5 days incubation, anti-insulin antibody/FITC staining (FIG. 5)
Description: Cells of the AR42J cell line derived from pancreatic cancer induced by chemical carcinogens (Christophe, Am. J. Physiol., 266: G963 (1994)) were suspended to a concentration of 10^5 cells/mL using Dulbecco's modified Eagle MEM medium containing 10% fetal calf serum and the Met-77 residue betacellulin prepared in Example 3, the Met-76 residue betacellulin prepared in Example 6, or the Met-80 residue betacellulin prepared in accordance with the method in Japanese Unexamined Patent Application (Kokai) H10-191989. 500 μL of these suspensions were inoculated to chamber slides and incubated for 5 days at 37° C. in carbon dioxide gas incubators (5% carbon dioxide gas, 95% air). After 5 days, the cells were washed once with PBS, fixed in 10% formaldehyde, and treated for 5 min with 0.1% Triton X-100. Block Ace (Snow Brand, Japan) was then added for 40 minutes of blocking at room temperature. Anti-insulin antibodies (by Advanced Immunochemicals) diluted with 10% Block Ace were added, and a reaction was performed for 40 minutes at room temperature. 0.1% Triton X-100 was added, the reaction solution was allowed to stand for 5 minutes at room temperature, and the cells were then washed three times with PBS. FITC (fluorescein isothiocyanate) labeled anti-mouse IgG antibodies (Cappel) diluted with 10% Block Ace were added, and a reaction was brought about for 40 minutes. 0.1% Triton X-100 was added, the reaction solution was allowed to stand for 5 minutes, the cells were then washed three times with PBS, and they were then observed under a fluorescent microscope.

[4] = target: T1, EGF receptor (A431 cells, high EGF receptor expression line) (Homo sapiens, UniProt P00533); assay: EGF binding assay using A431 cells (inhibition of 125I-EGF binding); conditions: for IC50: A431 cells, 0.25 nM 125I-EGF, 90 minutes at 4° C.; for EGF/BTC relative to Met-BTC80: ratio between EGF activity and BTC activity, Met-BTC80 = 100%
T1 construct: human squamous epithelial carcinoma cells A431 (high EGF receptor expression line); endogenous in cells; host or cells: A431 human squamous epithelial carcinoma cells (intact, adherent)
Protocol: Cell growth promoting activity was assayed by means of the inhibiting activity of binding to ^125I-EGF using human squamous epithelial carcinoma cells A431 (high EGF receptor expression line).
Specifically, 100 μL of A431 cells suspended to a concentration of 10^5 cells/mL using Dulbecco's modified Eagle MEM (DMEM) medium supplemented with 10% fetal calf serum were inoculated to 96 well plates and cultured for 2 days at 37° C. in carbon dioxide gas incubators (5% carbon dioxide gas and 95% air). […] The mixtures were allowed to stand for 90 minutes at 4° C., and then washed 3 times with 200 μL of binding medium, and the cells were lysed in 200 μL of 0.1 N sodium hydroxide aqueous solution containing 1% SDS. The cell lysate was then transferred to scintillation vials, 1 mL of Scintillator A (Wako Pure Chemicals) was added, and the inhibiting activity of binding to ^125I-EGF was assayed with a scintillation counter.

AR42J cells [5] = assay: β cell differentiation promoting activity using AR42J cells (anti-insulin immunofluorescence), Example 26; assay type: cell-based; conditions: 5 days incubation
Protocol: Cells of the AR42J cell line derived from pancreatic cancer induced by chemical carcinogens (Christophe, Am. J. Physiol., 266: G963 (1994)) were suspended to a concentration of 10^5 cells/mL in Dulbecco's modified Eagle MEM medium containing 10% fetal calf serum and one of hBTC50, Mutein A, Mutein B, or the 80-residue betacellulin (hBTC80) prepared in accordance with the method in Japanese Unexamined Patent Application (Kokai) H10-191989. 500 μL of these suspensions was inoculated on chamber slides and incubated for 5 days at 37° C. in carbon dioxide gas incubators (5% carbon dioxide gas, 95% air). After 5 days, the cells were washed once with PBS, fixed in 10% formaldehyde, and treated for 5 min with 0.1% Triton X-100. Block Ace (Snow Brand, Japan) was then added for 40 minutes of blocking at room temperature. Anti-insulin antibodies (by Advanced Immunochemicals) diluted with 10% Block Ace were added, and reacted for 40 minutes at room temperature. 0.1% Triton X-100 was added, the reaction solution was allowed to stand for 5 minutes at room temperature, and the cells were then washed three times with PBS. FITC (fluorescein isothiocyanate) labeled anti-mouse IgG antibodies (Cappel) diluted with 10% Block Ace were added, and a reaction was brought about for 40 minutes. 0.1% Triton X-100 was added, the reaction solution was allowed to stand for 5 minutes, the cells were then washed three times with PBS, and they were then observed under a fluorescent microscope.

[6] = target: T2, EGF receptor on human squamous epithelial carcinoma cells A431 (human, UniProt P00533 25-1210); assay: competition with 0.25 nM 125I-EGF on A431 cells
T2 construct: whole, on cells; also called A431 cells (high EGF receptor expression line)
Protocol: The mixtures were allowed to stand for 90 minutes at 4° C., and then washed 3 times with 200 μL of binding medium, and the cells were lysed in 200 μL of 0.1 N sodium hydroxide aqueous solution containing 1% SDS.

[7] = test system: PLAP expression AR42J cells; assay: β cell differentiation promoting activity using PLAP expression AR42J cells, Example 12; assay type: cell-based; conditions: 5 days, varying concentrations (FIG. 6)
Protocol: as §1
The PLAP expression AR42J cells constructed in Example 11 were suspended to a concentration of 10^5 cells/mL using Dulbecco's modified Eagle MEM medium containing 10% fetal calf serum and varying concentrations of the Met-77 residue betacellulin prepared in Example 3, the Met-76 residue betacellulin prepared in Example 6, or the Met-80 residue betacellulin prepared in accordance with the method in Japanese Unexamined Patent Application (Kokai) H10-191989. 100 μL of these suspensions were inoculated to 96 well plates and incubated for 5 days at 37° C. in carbon dioxide gas incubators (5% carbon dioxide gas, 95% air). After 5 days, the supernatant was taken and treated for 30 minutes at 65° C., and 50 μL was added to 96-well microplates containing 50 μL of 2×SEAP (2M diethanolamine, 1 mM MgCl2, 20 mM homoarginine). […]

BTC2-76: betacellulin mutein lacking one N terminal residue and four C terminal residues, SEQ ID NO: 37
EC50 [1]: 0.12 nM

BTC24-76: betacellulin mutein lacking 23 N terminal residues and four C terminal residues, SEQ ID NO: 38
EC50 [1]: 0.03 nM

Met-BTC80: 80 residue human betacellulin (SEQ ID NO: 35) with N terminal Met, prepared by the method of Kokai H10-191989 [reference compound]
PLAP activity (A 405), BTC added ([2]; clone AR1898-033, no BTC added: 0.034): 0.366 A 405 | PLAP activity (A 405), BTC added ([2]; clone AR1898-053, no BTC added: 0.008): 0.089 A 405 | PLAP activity (A 405), BTC added ([2]; clone AR1898-0192, no BTC added: 0.077): 0.752 A 405 | Differentiation into insulin-producing β cells (stained cells under fluorescent microscope) (AR42J cells [3]): cells which had differentiated into insulin-producing β cells were found | IC50 [4]: 1.2 nM | EGF/BTC relative to Met-BTC80 [4]: 100.0% | EC50 [1]: 0.07 nM

B1: Met-80 residue betacellulin (ligand)
chain: MDGNSTRSPETNGLLCGDPEENCAATTTQSKRKGHFSRCPKQYKHYCIKGRCRFVVAEQTPSCVCDEGYIGARCERVDLFY
notes: Prepared in E. coli by the method of Japanese Kokai H10-191989; The N-terminal Met is retained; also called Met-BTC80; hBTC80
Differentiation into insulin-producing β cells (stained cells under fluorescent microscope) (AR42J cells [5]; anti-insulin antibody/FITC staining): cells which had differentiated into insulin-producing β cells, were found | Incidence of insulin-producing cells (AR42J cells [5]; comparison between the proteins): no differences in the incidence of insulin-producing cells | IC50 [6]: 1.2 nM

B2: Met-76 residue betacellulin (ligand)
chain: MDGNSTRSPETNGLLCGDPEENCAATTTQSKRKGHFSRCPKQYKHYCIKGRCRFVVAEQTPSCVCDEGYIGARCERV
notes: Lacks the four C-terminal residues (Asp Leu Phe Tyr); also called Met-BTC76; BTC1-76
IC50 [6]: 95.1 nM

B3: Met-77 residue betacellulin: 77 residue betacellulin lacking three C terminal residues (SEQ ID NO: 1) with N terminal Met (protein)
chain: DGNSTRSPETNGLLCGDPEENCAATTTQSKRKGHFSRCPKQYKHYCIKGRCRFVVAEQTPSCVCDEGYIGARCERVD
modifications: N-terminal Met; Human
Differentiation into insulin-producing β cells (stained cells under fluorescent microscope) (AR42J cells [3]): cells which had differentiated into insulin-producing β cells were found | Promoting activity in inducing differentiation compared with Met-80 residue betacellulin [7]: virtually the same promoting activity in inducing differentiation as the Met-80 residue betacellulin

B4: Met-BTC76: 76 residue betacellulin lacking four C terminal residues (SEQ ID NO: 2) with N terminal Met (protein)
chain: DGNSTRSPETNGLLCGDPEENCAATTTQSKRKGHFSRCPKQYKHYCIKGRCRFVVAEQTPSCVCDEGYIGARCERV
modifications: N-terminal Met; Human
Differentiation into insulin-producing β cells (stained cells under fluorescent microscope) (AR42J cells [3]): cells which had differentiated into insulin-producing β cells were found | Promoting activity in inducing differentiation compared with Met-80 residue betacellulin [7]: virtually the same promoting activity in inducing differentiation as the Met-80 residue betacellulin | IC50 [4]: 95.1 nM | EGF/BTC relative to Met-BTC80 [4]: 5.4% | EC50 [1]: 0.3 nM
